Experimental data taken from patent US20020152485A1 (BOSTON HEART FOUNDATION, published 2002).

B1: recombinant rabbit LBP-3 (6-His tag) (other)
chain: MKNQDKKNGAAKQPNPKSSPGQPEAGAEGAQGRPGRPAPAREAEGASSQAPGRPEGAQAKTAQPGALCDVSEELSRQLEDILSTYCVDNNQGAPGEDGVQGEPPEPEDAEKSRAYVARNGEPEPGTPVVNGEKETSKAEPGTEEIRTSDEVGDRDHRRPQEKKKAKGLGKEITLLMQTLNTLSTPEEKLAALCKKYAELLEEHRNSQKQMKLLQKKQSQLVQEKDHLRGEHSKAILARSKLESLCRELQRHNRSLKEEGVQRAREEEEKRKEVTSHFQMTLNDIQLQMEQHNERNSKLRQENMELAERLKKLIEQYELREEHIDKVFKHKDLQQQLVDAKLQQAQEMLKEAEERHQREKDFLLKEAVESQRMCELMKQQETHLKQQLALYTEKFEEFQNTLSKSSEVFTTFKQEMEKMTKKIKKLEKETTMYRSRWESSNKALLEMAEEKTLRDKELEGLQVKIQRLEKLCRALQTERNDLNKRVQDLSAGGQGPVSDSGPERRPEPATTSKEQGVEGPGAQVPNSPRATDASCCAGAPSTEASGQTGPQEPTTATA
modifications: 125I-iodinated (Iodobeads) where used as the radiolabeled species in ACE assays
notes: also called LBP-3 (80 kDa fragment); rabbit recombinant LBP-3; not shown: N-terminal 6-histidine tag from the pPROEX-HT vector
B2: recombinant rabbit LBP-2 clone 26 (6-His tag) (other)
chain: PPPPQQPQPPPEGGAARAGGPARPVSLREVVRYLGGSSGAGGRLTRGRVQGLLEEEAAARGRLERTRLGALALPRGDRPGRAPPAASARAARNKRAGEERVLEKEEEEEEEEDDEDDDDDVVSEGSEVPESDRPAGAQHHQLNGGERGPQTAKERAKEWSLCGPHPGQEEGRGPAAGSGTRQVFSMAALSKEGGSASSTTGPDSPSPVPLPPGKPALPGADGTPFGCPAGRKEKPADPVEWTVMDVVEYFTEAGFPEQATAFQEQEIDGKSLLLMQRTDVLTGLSIRLGPALKIYEHHIKVLQQGHFEDDDPEGFLG
modifications: 125I-iodinated (Iodobeads) where used as the radiolabeled species in ACE assays
notes: Clone 26 contains the acidic region, residues 338-365; also called LBP-2 (rabbit clone 26); clone 26 derived LBP-2; not shown: N-terminal 6-histidine tag from the pPROEX-HT vector

Legend:
[1] = molecular target: T1, native human low density lipoprotein (LDL) (human, UniProt P04114 28-4563); test: affinity coelectrophoresis (ACE): 125I-LBP-3 run through LDL cast in agarose; binding curve
T1 construct: This is a lipoprotein particle (protein plus lipid), not an isolated polypeptide; also called native LDL; cold LDL
Method: (§1) Analysis of the affinity and specificity of recombinant rabbit LBP-1, LBP-2 or LBP-3 binding to LDL was carried out using the principle of affinity electrophoresis (Lee and Lander, Proc. Natl. Acad. Sci. USA 88:2768-2772 (1991)). Melted agarose (1%; 65° C.) was prepared in 50 mM sodium MOPS, pH 7.0; 125 mM sodium acetate, 0.5% CHAPS. A teflon comb consisting of nine parallel bars (45×4×4 mm/3 mm spacing between bars) was placed onto GelBond film (FMC Bioproducts, Rockland, Me.) fitted to a plexiglass casting tray with the long axis of the bars parallel to the long axis of the casting tray. A teflon strip (66×1×1 mm) was placed on edge with the long axis parallel to the short axis of the casting tray, at a distance of 4 mm from the edge of the teflon comb. Melted agarose (>65° C.) was then poured to achieve a height of approximately 4 mm. […] LDL or HDL samples were prepared in gel buffer (50 mM sodium MOPS, pH 7.0, 125 mM sodium acetate) at twice the desired concentration. Samples were then mixed with an equal volume of melted agarose (in 50 mM MOPS, pH 7.0; 125 mM sodium acetate; 50° C.), pipetted into the appropriate rectangular wells and allowed to gel. The binding affinity and specificity of LBP-1 and LBP-3 was tested using several concentrations of LDL (540 to 14 nM) and HDL (2840177 nM). […]

[2] = molecular target: T1, native human low density lipoprotein …; test: affinity coelectrophoresis (ACE): 125I-LBP-2 run through LDL cast in agarose; binding curve
Method: as §1

T1 sequence (P04114 28-4563): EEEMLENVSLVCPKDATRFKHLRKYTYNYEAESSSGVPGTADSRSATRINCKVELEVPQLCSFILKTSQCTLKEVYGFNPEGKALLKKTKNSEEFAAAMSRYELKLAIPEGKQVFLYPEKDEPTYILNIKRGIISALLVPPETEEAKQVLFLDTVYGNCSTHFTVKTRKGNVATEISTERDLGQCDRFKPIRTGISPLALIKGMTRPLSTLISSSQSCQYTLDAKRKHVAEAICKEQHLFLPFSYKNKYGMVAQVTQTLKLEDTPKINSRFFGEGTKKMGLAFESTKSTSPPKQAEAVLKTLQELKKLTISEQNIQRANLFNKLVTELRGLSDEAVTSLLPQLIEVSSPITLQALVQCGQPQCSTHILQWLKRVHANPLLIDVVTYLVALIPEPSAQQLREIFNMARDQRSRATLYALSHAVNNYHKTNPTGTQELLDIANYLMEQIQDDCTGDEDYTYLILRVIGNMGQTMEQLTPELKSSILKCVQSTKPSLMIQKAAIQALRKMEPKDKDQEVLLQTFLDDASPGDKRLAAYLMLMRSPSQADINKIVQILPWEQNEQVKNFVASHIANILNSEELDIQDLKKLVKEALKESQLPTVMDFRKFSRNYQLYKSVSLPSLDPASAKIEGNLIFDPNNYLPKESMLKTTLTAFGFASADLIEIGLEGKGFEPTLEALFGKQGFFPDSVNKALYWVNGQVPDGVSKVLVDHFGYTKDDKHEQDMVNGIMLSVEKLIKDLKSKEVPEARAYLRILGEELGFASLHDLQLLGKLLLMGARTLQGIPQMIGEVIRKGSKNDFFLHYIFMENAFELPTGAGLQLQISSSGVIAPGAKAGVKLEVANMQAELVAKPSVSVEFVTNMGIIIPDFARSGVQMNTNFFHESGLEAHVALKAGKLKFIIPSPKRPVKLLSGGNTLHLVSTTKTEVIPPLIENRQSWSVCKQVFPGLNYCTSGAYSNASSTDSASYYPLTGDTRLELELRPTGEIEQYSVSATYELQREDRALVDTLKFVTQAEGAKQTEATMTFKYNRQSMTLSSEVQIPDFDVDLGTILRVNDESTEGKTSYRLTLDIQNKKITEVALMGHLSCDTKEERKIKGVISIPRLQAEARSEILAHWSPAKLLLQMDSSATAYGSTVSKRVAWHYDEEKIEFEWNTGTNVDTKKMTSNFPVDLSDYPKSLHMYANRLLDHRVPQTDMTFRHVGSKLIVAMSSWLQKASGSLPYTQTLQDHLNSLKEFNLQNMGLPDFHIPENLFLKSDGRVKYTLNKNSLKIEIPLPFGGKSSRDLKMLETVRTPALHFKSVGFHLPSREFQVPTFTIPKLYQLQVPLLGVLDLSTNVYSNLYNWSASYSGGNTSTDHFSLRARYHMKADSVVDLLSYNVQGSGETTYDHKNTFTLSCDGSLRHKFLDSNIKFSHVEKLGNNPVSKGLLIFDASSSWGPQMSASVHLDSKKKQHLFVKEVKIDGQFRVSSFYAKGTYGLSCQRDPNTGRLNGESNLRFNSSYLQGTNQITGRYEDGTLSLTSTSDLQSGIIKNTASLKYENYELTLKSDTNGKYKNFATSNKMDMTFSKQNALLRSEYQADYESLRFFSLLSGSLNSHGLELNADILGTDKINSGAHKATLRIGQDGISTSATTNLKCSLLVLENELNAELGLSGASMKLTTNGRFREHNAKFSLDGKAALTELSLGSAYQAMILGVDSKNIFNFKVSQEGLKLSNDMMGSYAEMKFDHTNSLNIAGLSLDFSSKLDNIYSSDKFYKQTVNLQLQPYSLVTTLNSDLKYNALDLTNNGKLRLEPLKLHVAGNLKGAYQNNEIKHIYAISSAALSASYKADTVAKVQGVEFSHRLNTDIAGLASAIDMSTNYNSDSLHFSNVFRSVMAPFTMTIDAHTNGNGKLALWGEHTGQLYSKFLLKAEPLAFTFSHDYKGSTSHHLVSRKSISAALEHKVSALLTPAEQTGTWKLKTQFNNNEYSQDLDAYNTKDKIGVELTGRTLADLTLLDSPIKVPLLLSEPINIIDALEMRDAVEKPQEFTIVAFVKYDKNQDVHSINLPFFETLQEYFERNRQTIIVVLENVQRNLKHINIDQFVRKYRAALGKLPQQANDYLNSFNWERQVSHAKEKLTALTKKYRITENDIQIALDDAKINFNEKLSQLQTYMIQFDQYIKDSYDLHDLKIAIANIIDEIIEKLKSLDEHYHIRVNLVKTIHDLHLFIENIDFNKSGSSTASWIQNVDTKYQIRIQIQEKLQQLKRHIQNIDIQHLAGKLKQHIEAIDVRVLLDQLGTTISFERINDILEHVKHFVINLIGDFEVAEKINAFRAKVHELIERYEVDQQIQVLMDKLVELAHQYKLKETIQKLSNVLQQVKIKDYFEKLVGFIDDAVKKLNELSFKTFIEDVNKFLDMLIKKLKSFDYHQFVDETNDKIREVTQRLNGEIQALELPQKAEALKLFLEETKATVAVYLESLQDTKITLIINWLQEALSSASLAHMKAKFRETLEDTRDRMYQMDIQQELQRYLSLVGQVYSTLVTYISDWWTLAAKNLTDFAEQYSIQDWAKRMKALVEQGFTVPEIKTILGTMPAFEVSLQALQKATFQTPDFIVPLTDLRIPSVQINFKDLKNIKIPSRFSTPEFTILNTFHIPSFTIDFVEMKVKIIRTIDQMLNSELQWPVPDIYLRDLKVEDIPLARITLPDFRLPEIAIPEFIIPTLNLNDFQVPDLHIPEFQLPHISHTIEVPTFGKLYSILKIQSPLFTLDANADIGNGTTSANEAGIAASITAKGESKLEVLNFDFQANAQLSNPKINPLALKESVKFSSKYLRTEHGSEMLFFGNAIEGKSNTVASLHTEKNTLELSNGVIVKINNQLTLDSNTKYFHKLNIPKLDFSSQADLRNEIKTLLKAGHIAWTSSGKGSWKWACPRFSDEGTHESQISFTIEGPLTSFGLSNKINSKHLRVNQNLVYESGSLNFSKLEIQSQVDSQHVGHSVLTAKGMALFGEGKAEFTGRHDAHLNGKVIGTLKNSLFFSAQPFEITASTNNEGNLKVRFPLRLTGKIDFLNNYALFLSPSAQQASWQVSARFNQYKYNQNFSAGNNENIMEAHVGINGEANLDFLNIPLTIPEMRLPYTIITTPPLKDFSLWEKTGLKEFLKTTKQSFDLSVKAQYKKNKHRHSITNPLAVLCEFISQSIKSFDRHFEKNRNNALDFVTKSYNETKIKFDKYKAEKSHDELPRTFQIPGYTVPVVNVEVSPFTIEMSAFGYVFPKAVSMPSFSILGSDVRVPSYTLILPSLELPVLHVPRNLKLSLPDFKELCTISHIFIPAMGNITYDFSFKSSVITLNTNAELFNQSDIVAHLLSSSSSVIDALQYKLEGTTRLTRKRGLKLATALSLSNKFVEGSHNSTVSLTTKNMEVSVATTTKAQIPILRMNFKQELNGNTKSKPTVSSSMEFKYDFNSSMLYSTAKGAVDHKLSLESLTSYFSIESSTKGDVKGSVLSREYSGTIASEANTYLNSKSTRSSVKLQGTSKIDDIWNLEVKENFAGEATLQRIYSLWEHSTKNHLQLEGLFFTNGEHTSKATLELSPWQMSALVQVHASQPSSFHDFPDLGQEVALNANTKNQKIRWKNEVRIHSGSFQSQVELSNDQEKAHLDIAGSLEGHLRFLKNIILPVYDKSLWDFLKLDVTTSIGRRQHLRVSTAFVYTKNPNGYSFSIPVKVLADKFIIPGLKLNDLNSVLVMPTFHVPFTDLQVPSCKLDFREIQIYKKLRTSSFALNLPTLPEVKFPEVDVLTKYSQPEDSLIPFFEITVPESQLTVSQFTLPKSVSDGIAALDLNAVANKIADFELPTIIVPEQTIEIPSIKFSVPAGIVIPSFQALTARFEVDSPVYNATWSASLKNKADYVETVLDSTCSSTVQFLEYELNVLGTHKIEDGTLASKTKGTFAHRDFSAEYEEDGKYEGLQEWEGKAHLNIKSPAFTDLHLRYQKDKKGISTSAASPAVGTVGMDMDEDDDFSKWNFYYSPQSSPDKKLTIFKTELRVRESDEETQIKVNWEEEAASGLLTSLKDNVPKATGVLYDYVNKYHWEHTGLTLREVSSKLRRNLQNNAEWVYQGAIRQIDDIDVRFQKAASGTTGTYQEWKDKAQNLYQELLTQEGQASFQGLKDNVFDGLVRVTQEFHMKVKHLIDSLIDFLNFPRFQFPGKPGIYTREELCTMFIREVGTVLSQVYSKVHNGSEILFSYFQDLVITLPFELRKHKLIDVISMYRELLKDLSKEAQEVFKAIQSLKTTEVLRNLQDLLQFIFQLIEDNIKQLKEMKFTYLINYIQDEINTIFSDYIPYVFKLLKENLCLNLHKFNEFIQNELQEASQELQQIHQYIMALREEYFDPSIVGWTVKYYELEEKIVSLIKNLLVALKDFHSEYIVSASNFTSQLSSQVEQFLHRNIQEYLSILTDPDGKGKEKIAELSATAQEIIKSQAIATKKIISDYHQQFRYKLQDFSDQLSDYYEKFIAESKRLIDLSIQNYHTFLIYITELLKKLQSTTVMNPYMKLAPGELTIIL

| Kd [1] | Kd [2] | Binder |
| --- | --- | --- |
| 333 nM | – | B1 |
| – | 100 nM | B2 |
